Source: US20190248902A1 (published 2019)

T1: human ASGR-1 mutant construct H203 (human, UniProt P07306 1-291)
T1 construct: Arg/Glu scanning: non-arginine residues were changed to arginine; Transiently expressed on CHO-S cells
T1 sequence: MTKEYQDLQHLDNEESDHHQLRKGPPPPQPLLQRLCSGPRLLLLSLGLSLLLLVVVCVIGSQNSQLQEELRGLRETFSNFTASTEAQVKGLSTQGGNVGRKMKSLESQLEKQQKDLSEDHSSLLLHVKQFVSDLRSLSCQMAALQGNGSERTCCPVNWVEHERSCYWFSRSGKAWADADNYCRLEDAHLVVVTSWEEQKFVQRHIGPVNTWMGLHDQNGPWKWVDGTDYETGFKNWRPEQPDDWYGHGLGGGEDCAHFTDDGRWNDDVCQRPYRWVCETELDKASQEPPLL

B1: 4A2 (antibody, V domains shown)
VH: QVQLVQSGTEVKKPGASVKVSCKASGYTFTNYDINWVRQATGQGLEWMGWMHPNSGNTGYAQKFQGRVTLTRNTSISTAYMELSSLRSEDTAVYYCASSSGWYYFDYWGQGTLVTVSS
VL: DIVMTQSPDSLAVSLGERATINCKSSQSILHSSNNNNYLAWFQQKPGQPPKLLLYWASTRESGVPDRFSGSGSGTDFTLTISSLQPEDVAVYYCQQYYNTPVTFGPGTKVGIK
notes: mAb
B2: 7E11 (antibody, V domains shown)
VH: QVQLVESGGGVVQPGRSLRLSCAASGFTFSSFGMHWVRQAPGKGLEWVAIIWHDGSNKYYADSVKGRFTISRDNSNNTLYLQMSSLRAEDTAVYYCARDLSMGGMDVWGQGTTVTVSS
VL: DIQMTQSPSSLSASVGDRVTIACRASQNIISYLNWYQQKPGKAPKFLIYTASSLQSGVPSRFSGSGSGTDFTLTISSLQPEDFAIYYCQQTYSTPLTFGGGTKVEIK
notes: mAb
B3: 56E5 (antibody, V domains shown)
VH: QVQLVQSGAEVKKPGASVKVSCQASGYTFTGYHMHWVRQAPGQGLEWMGWINPNNNATNYAQKFQGRVTMTRDTSISTAYMELRRLRSDDTAVYHCARDGTSSFDYWGQGTLVTVSS
VL: DIQMTQSPSSVSASVGDRVTITCRASQGIRKWLAWYQQKPGKAPKLLIYAASSLQSGVPSRFSGSGSGTDFTLTISSLQPEDFATYYCQQANSFPFTFGPGTKVDIK
notes: mAb
B4: 5E5 (antibody, V domains shown)
VH: QVQLVESGGGVVQPGRSLRLSCAASGFTFSNYVMHWVRQAPGKGLEWVAVIWYDGSNKYYADSVKGRFTISRDNSKNTLYLQMNSLRAEDTAVYYCTREVYSSGWYDYGMDVWGQGTTVTVSS
VL: DIQMTQSPSSLSASVGDRVTITCRASQGIRNDLGWYQQKPGKAPKRLIYAASSLQSGVPSRFSGSGSGTEFTLTISSLQPEDFATYYCLQHYSYPRTFGQGTKVEVK
notes: mAb
B5: 7G4 (antibody, V domains shown)
VH: QVQLVESGGGVVQPGRSLRLSCAASGFTFNNYVMHWVRQAPGKGLEWVAVIWYDGSNKYYADSVKGRFTISRDNSKNTLYLQMTSLRAEDTAVYYCAREKYSSNWYDYGMDVWGQGTTVTVSS
VL: DIQMTQSPSSLSASVGDRVTITCRASQGIRNDLGWYQQRPGKAPKRLIYAASSLQSGVPSRFSGSGSGTEFTLTISSLQPEDSATYYCLHQYSYPRTFGQGTKVEIK
notes: mAb
B6: 26C4 (antibody, V domains shown)
VH: QVQLVQSGAEVKKPGASVKVSCKASGYTFTNYDINWVRQASGQGLEWMGWMNPNSGNTGYAQRFQGRVTMTRNTSINTAYMELSSLRSEDTAVYYCASSSGWYYFDYWGQGTLVTVSS
VL: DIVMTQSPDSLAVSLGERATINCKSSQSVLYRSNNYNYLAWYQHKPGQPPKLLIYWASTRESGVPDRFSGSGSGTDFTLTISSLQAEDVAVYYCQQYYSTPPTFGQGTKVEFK
notes: mAb
B7: 29H8 (antibody, V domains shown)
VH: QVQLVQSGAEVQKPGASVKVSCKASGYTFTNYDINWVRQATGQGLEWMGWMNPNSGNTGYAQRFQGRVTMTRNTSISAAYMELSSLRSEDTAVYYCASSSGWYYFDYWGQGTLVTVSS
VL: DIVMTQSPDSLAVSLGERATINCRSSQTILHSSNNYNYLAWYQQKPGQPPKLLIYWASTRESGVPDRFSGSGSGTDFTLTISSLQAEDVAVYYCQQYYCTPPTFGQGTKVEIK
notes: mAb
B8: 25A4 (antibody, V domains shown)
VH: QVLLVQSGAEVKRPGASVKVSCKASGYTFTNYDINWVRQATGQGLEWMGWMYPNSGNTGYAQKFQGRVTMTRNTSISTAYMELSSLRSEDTAVYYCASSSGWYYFDYWGQGTLVTVSS
VL: DIVMTQFPDSLAVSLGERATIKCKSSQSVLYSSHNNNYLAWYQQKPGQPPKLLLYWASTRESGVPDRFSGSGSGTEFTLTISSLEAEDVAVYYCQQYYSTPPTFGQGTKVEIK
notes: mAb
B9: 6G7 (antibody, V domains shown)
VH: QVQLVESGGGVVQPGRSLRLSCAASGFTFSSYGMHWVRQTPGKGLEWVAIISYVGKNKYYADSVKGRFTISRDNSKNTLYLQMNSLRAEDTAVYYCARRGNSYGGYGMDVWGQGTTVTVSS
VL: DIQMTQSPSSRSASVGDRVTITCQASQDISNYLNWCQQKPGKALKLLIYDASTLETGVPSRFSGSGSGTDFTFTISSVQPEDIATYYCQQYDNVPITFGQGTRLEIK
notes: mAb
B10: 22G5 (antibody, V domains shown)
VH: EVQLLESGGGLVQPGGSLRLSCAASGFTFSSYAMNWVRQAPGMGLEWVSVISRSGGYTYYADSVKGRFTISRDNSKNTLYLQMNSLRAEDTAVYYCASRLAVAGSEAFDIWGQGTLVTVSS
VL: DIQMTQSPSSLSASVGDRVTITCRASQNISSYLNWYQQKQGKAPKLLIYAASSLQNGVPSRFSGRGSGTDFTLTISSLQPEDFATYYCQQSYRTPLFTFGPGTKVDFK
notes: mAb
B11: 48B12 (antibody, V domains shown)
VH: EVQLLESGGGLVQPGGSLRLSCAASGFTFSSYAMNWVRQAPGKGLEWVSAISGRGGNTFYADSVKGRFTISRDNSKNTLYLQMNSLRAEDTAVYYCAKRETYNWNYEGFDYWGQGTLVTVSS
VL: SYELTQPPSVSVSPGQTARITCSGDALPKKYAYWYQQKSGQAPVLVIYEDSKRPSGIPERFSGSSSGTMATLTISGAQVEDEADYYCNSTDSSGNHVVFGGGTKLTVL
notes: mAb
B12: 184E7 (antibody, V domains shown)
VH: QVQLVQSGAEVKTPGASVKVSCRASGYTFTSYNMHWVRQVPGQGLEWMGWINPNNGGSNYTQKFQGRVTMTRDTSISTAYMELSRLRSDDTAVYYCARKFGDWGQGTLVTVSS
VL: DIQMTQSPSSRSASIGERVTITCRASQGISNYLAWIQQKPGTAPKSLIYAASSLQSGVSSRFSGSGFGTDFTITISSVQREDFATYYCQQYNGYPFTFGHGTKVDIK
notes: mAb
B13: 72G9 (antibody, V domains shown)
VH: EVQLVESGGGLVKPGGSLRLSCAASGFTFSSYSMNWVRQAPGKGLEWVSSISGSSSYIYYADSVKGRFTISRDNAKNSLYLQMNSLRAEDTAVYFCARGGSRGFDPWGQGTLVTVSS
VL: DIQMTQSPSSLSASVGDRVTITCRASQSITSYLNWYQQKPGKAPKLLIYTASSLQSGVPSRFSGSGSGTDFTLTISSLQPEDFATYYCQQSHSFPFTFGPGTKVDIK
notes: mAb
B14: 194A4 (antibody, V domains shown)
VH: QVQLVQSGTEVKKPGASLKVSCKASGYTFTVYYLNWVRQAPGQGLEWMGWINPNSGGTNYAQKFQGRVTMTRDTSISTAYMELSRLRSDDTAVYYCARGYDILTGWGQGTLVTVSS
VL: EIVLTQSPGTLSLSPGERATLSCRASRGVSNIYLAWYQQKPGQAPRLLIYGASNRATGIPDRFSGSGSGTDFTLTISRLEPEDFAVYYCQHNDYSMFTFGPGTKVDIK
notes: mAb
B15: 190F8 (antibody, V domains shown)
VH: QVQLVESGGGVVQPGRSLRLSCAASGFTFSTYGMHWVRQAPGKGLEWVAVIWYDGSNKNYADSVKGRFTISRDNSKNTLYLQMNSLRAEDTAVYYCARDQGVGYDGLDVWGQGTTVTVSS
VL: DIQMTQSPSSLSASVGDRVTITCRTSQGIGNYLAWFQQKPGKAPKSLLYKASSLQSGVPSKFSGSGSGTDFTLTISSLQPEDFATYYCQQYMTYPLTFGGGTKVEIK
notes: mAb
B16: 191G1 (antibody, V domains shown)
VH: QVQLVESGGGVVQPGRSLRLSCAASGFTFSSYGMHWVRQAPGKGLEWVAVIWYDGSNEHYADSVKGRFTISRDNSKNTLYLQMNSLRAEDTAVYYCARDRGVGYYGLDVWGQGTTVTVSS
VL: DIQMTQSPSSLSASVGDRVTITCRASQGISNYLAWFQQKPGKAPKSLIYAASSLQSGVPSKFSGSGSGTDFTLTISSLQPEDFATYYCQHYLTYPLTFGGGTKVEIK
notes: mAb
B17: 191G10 (antibody, V domains shown)
VH: QVQLVESGGGVVQPGRSLRLSCAASGFTFSSYGMHWVRQAPGKGLEWVAVIWYDGSNKNYADSVKGRFTISRDNSKNTLYLQMNSLRAEDTAVYYCARDQGVGYDGLDVWGQGTTVTVSS
VL: DIQMTQSPSSLSASVGDRVTITCRTSQGIGKYLAWFQQKPGKAPKSLLYKVSSLQSGVPSKFSGSGSGTDFTLTISSLQPEDFATYYCQQYMTYPLTFGGGTKVEIK
notes: mAb
B18: 198G3 (antibody, V domains shown)
VH: QVQLVESGGGVVQPGRSLKLSCAASGFTFSTYGMHWVRQAPGKGLEWVAVIWYDGTNKNYADSVKGRFTISRDNSKNTLCLQMNSLRAEDTAVYYCARDQGVGYDGLDVWGQGTTVTVSS
VL: DIQMAQSPSSLSASVGDRVTITCRTSQGIGKYLAWFQQKPGKAPKSLLYKASSLQGGVPSKFSGSGSGTDFTLTISSLQPEDFATYYCQQYMTYPLTFGGGTKVEIK
notes: mAb
B19: 194C1 (antibody, V domains shown)
VH: QVQLVESGGGVVQPGRSLRLSCAASGFTFSSYGMHWVRQAPGKGLEWVAVIWYDGSNEHYADSVKGRFTISRDNSKNTLYLQMNSLRAEDTAVYYCARNRGVGYYGLDVWGQGTTVTVSS
VL: DIQMTQSPSSLSASVGDRVTITCRASQGISNYLAWFQQKPGKAPKSLIYAASSLQSGVPSKFSGSGSGTDFTLTISSLQPEDFATYYCLHYLTYPLTFGGGTKVEIK
notes: mAb
B20: 176H4 (antibody, V domains shown)
VH: QVQLVESGGGVVQPGRSLRLSCAASGFTFSSYGMHWVRQAPGKGLEWVAIIWYDGSYKYYADSVKGRFTISRDNSKNTLYLQMSSLRAEDTAVYYCARDAHDFWSGYFAYWGQGALVTVSS
VL: DIVMTQTPLSLSVTPGQPASISCKSSQSLLHGDGKTYLYWYLQKPGQPPQLLIYEVSNRFSGVPDRFSGSGSGTDFTLKISRVEAEDVGIYYCMQSIQIPWTFGQGTRVEIK
notes: mAb
B21: 197G3 (antibody, V domains shown)
VH: QVQLVESGGGVVQPGRSLRLSCVASGFTFSSHGMHWVRQAPGKGLEWVAVIWYDGSNKNYADSVKGRFTISRDNSKNTLYLQMNSLRAEDTAVYYCARDPSVGYDGMDVWGQGTTVTVSS
VL: DIQMTQSPSSLSASVGDRVTITCRASQGIGNHLAWFQQKPGKAPKSLIYAASSLQSGVPSKFSGSRSGTDFSLTISSLQPEDFATYYCQQYSNYPVTFGPGTKVDIK
notes: mAb

Target: T1, human ASGR-1 mutant construct H203
Assay: FACS ratio: 65C12 geomean / this mAb geomean
Summary of the method: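 CHO-S cells transiently expressing wild-type or point-mutant hASGR-1 were stained with antibody at 5 ug/ml for 1 h at 4 °C. Bound antibody was detected by Fc-specific Alexa 647 secondary plus 7-AAD and read by flow cytometry. Ratio is 65C12 geomean divided by test mAb geomean, normalizing for expression.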

Binder | Expression Normalization to mAb 65C12
B1 | 1.36
B2 | 1.75
B3 | 1.27
B4 | 2.04
B5 | 1.39
B6 | 1.91
B7 | 1.95
B8 | 1.29
B9 | 1.71
B10 | 1.71
B11 | 1.26
B12 | 1.4
B13 | 1.37
B14 | 2.12
B15 | 1.71
B16 | 2.37
B17 | 1.51
B18 | 1.96
B19 | 2.33
B20 | 2.52
B21 | 7.35
